These results are taken from patent publication US20170283834A1, “Processes for Producing A Fermentation Product Using A Fermenting Organism” (Novozymes A/S, priority 2014, published 2017).

The test system of the series is zein. In words: Relative activity assay of protease variants (zein micro titer plate). The class given is biochemical. In short, it runs like this:
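Yeast culture supernatants (3 days, 28 °C) incubated over 4 h or overnight on zein-agar plates (pH 4.5 acetate, 0.25 mM ZnSO4) at two temperatures. Zein turbidity read at A630; higher/lower-temperature activity ratio gives relative thermoactivity.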

B1: JTP180: protease variant of SEQ ID NO: 3: S70V D79L Y82F S87G Y97W A112P D142L (protein, listed as Thermoascus aurantiacus)
chain: MRLVASLTALVALSVPVFPAAVNVKRASSYLEITLSQVSNTLIKAVVQNTGSDELSFVHLNFFKDPAPVKKVSVYRDGSEVQFEGILSRYKSTGLSRDAFTYLAPGESVEDVFDIASTYDLTSGGPVTIRTEGVVPYATANSTDIAGYISYSSNVLTIDVDGAAAATVSKAITPLDRRTRISSCSGSRQSALTTALRNAASLANAAADAAQSGSASKFSEYFKTTSSSTRQTVAARLRAVAREASSSVSGATTYYCLDPFGYCSGNVLAYTLPSWNIIANCDIFYTYLPPLTSTCHAQDQATTALHEFTHAPGVYSPGTLDLAYGYQAAMGLSSSQAVMNADTYALYANAIYLGC
In the case of B1, the “Relative activity 80° C./70° C.” value (Table 5, upper part) is given as 52%.

B2: JTP194: protease variant of SEQ ID NO: 3: Y82F S87G D79L D104P A112P A126V D142L (protein, listed as Thermoascus aurantiacus)
chain: MRLVASLTALVALSVPVFPAAVNVKRASSYLEITLSQVSNTLIKAVVQNTGSDELSFVHLNFFKDPAPVKKVSVYRDGSEVQFEGILSRYKSTGLSRDAFTYLAPGESVEDVFDIASTYDLTSGGPVTIRTEGVVPYATANSTDIAGYISYSSNVLTIDVDGAAAATVSKAITPLDRRTRISSCSGSRQSALTTALRNAASLANAAADAAQSGSASKFSEYFKTTSSSTRQTVAARLRAVAREASSSSSGATTYYCLDPFGYCSGNVLAYTLPSYNIIANCPIFYTYLPPLTSTCHAQDQATTVLHEFTHAPGVYSPGTLDLAYGYQAAMGLSSSQAVMNADTYALYANAIYLGC
On to B2, for which, under “Table 5, upper part”, the “Relative activity 85° C./70° C.” value was determined as 22%.

B3: JTP213: protease variant of SEQ ID NO: 3: A27K Y82F D104P A112P A126V D142L (protein, listed as Thermoascus aurantiacus)
chain: MRLVASLTALVALSVPVFPAAVNVKRASSYLEITLSQVSNTLIKAVVQNTGSDELSFVHLNFFKDPAPVKKVSVYRDGSEVQFEGILSRYKSTGLSRDAFTYLAPGESVEDVFDIASTYDLTSGGPVTIRTEGVVPYATANSTDIAGYISYSSNVLTIDVDGAAAATVSKAITPLDRRTRISSCSGSRQSALTTALRNAASLANKAADAAQSGSASKFSEYFKTTSSSTRQTVAARLRAVAREASSSSSGATTYYCDDPFGYCSSNVLAYTLPSYNIIANCPIFYTYLPPLTSTCHAQDQATTVLHEFTHAPGVYSPGTLDLAYGYQAAMGLSSSQAVMNADTYALYANAIYLGC
Consider B3, for which, where the note is “Table 5, lower part”, the “Relative activity 75° C./70° C.” value was found to be 103% and the “Relative activity 80° C./70° C.” value turned out to be 37%.

B4: JTP211: protease variant of SEQ ID NO: 3: A27K D79L Y82F D104P A112P A126V D142L (protein, listed as Thermoascus aurantiacus)
chain: MRLVASLTALVALSVPVFPAAVNVKRASSYLEITLSQVSNTLIKAVVQNTGSDELSFVHLNFFKDPAPVKKVSVYRDGSEVQFEGILSRYKSTGLSRDAFTYLAPGESVEDVFDIASTYDLTSGGPVTIRTEGVVPYATANSTDIAGYISYSSNVLTIDVDGAAAATVSKAITPLDRRTRISSCSGSRQSALTTALRNAASLANKAADAAQSGSASKFSEYFKTTSSSTRQTVAARLRAVAREASSSSSGATTYYCLDPFGYCSSNVLAYTLPSYNIIANCPIFYTYLPPLTSTCHAQDQATTVLHEFTHAPGVYSPGTLDLAYGYQAAMGLSSSQAVMNADTYALYANAIYLGC
On to B4, for which, under “Table 5, lower part”, the “Relative activity 75° C./70° C.” value worked out at 94% and the “Relative activity 80° C./70° C.” value turned out to be 44%.

B5: JTP181: protease variant of SEQ ID NO: 3: D79L Y82F S87G Y97W D104P A112P D142L (protein, listed as Thermoascus aurantiacus)
chain: MRLVASLTALVALSVPVFPAAVNVKRASSYLEITLSQVSNTLIKAVVQNTGSDELSFVHLNFFKDPAPVKKVSVYRDGSEVQFEGILSRYKSTGLSRDAFTYLAPGESVEDVFDIASTYDLTSGGPVTIRTEGVVPYATANSTDIAGYISYSSNVLTIDVDGAAAATVSKAITPLDRRTRISSCSGSRQSALTTALRNAASLANAAADAAQSGSASKFSEYFKTTSSSTRQTVAARLRAVAREASSSSSGATTYYCLDPFGYCSGNVLAYTLPSWNIIANCPIFYTYLPPLTSTCHAQDQATTALHEFTHAPGVYSPGTLDLAYGYQAAMGLSSSQAVMNADTYALYANAIYLGC
As to B5, the “Relative activity 80° C./70° C.” value (Table 5, upper part) was determined as 45%.

B6: JTP189: protease variant of SEQ ID NO: 3: D79L Y82F S87G A112P A126V D142L (protein, listed as Thermoascus aurantiacus)
chain: MRLVASLTALVALSVPVFPAAVNVKRASSYLEITLSQVSNTLIKAVVQNTGSDELSFVHLNFFKDPAPVKKVSVYRDGSEVQFEGILSRYKSTGLSRDAFTYLAPGESVEDVFDIASTYDLTSGGPVTIRTEGVVPYATANSTDIAGYISYSSNVLTIDVDGAAAATVSKAITPLDRRTRISSCSGSRQSALTTALRNAASLANAAADAAQSGSASKFSEYFKTTSSSTRQTVAARLRAVAREASSSSSGATTYYCLDPFGYCSGNVLAYTLPSYNIIANCDIFYTYLPPLTSTCHAQDQATTVLHEFTHAPGVYSPGTLDLAYGYQAAMGLSSSQAVMNADTYALYANAIYLGC
With B6, the “Relative activity 80° C./70° C.” value (Table 5, upper part) came out at 46%.

B7: JTP210: protease variant of SEQ ID NO: 3: A27K Y82F S87G D104P A112P A126V D142L (protein, listed as Thermoascus aurantiacus)
chain: MRLVASLTALVALSVPVFPAAVNVKRASSYLEITLSQVSNTLIKAVVQNTGSDELSFVHLNFFKDPAPVKKVSVYRDGSEVQFEGILSRYKSTGLSRDAFTYLAPGESVEDVFDIASTYDLTSGGPVTIRTEGVVPYATANSTDIAGYISYSSNVLTIDVDGAAAATVSKAITPLDRRTRISSCSGSRQSALTTALRNAASLANKAADAAQSGSASKFSEYFKTTSSSTRQTVAARLRAVAREASSSSSGATTYYCDDPFGYCSGNVLAYTLPSYNIIANCPIFYTYLPPLTSTCHAQDQATTVLHEFTHAPGVYSPGTLDLAYGYQAAMGLSSSQAVMNADTYALYANAIYLGC
With B7, for the setting “Table 5, lower part”, the “Relative activity 75° C./70° C.” value was found to be 107% and the “Relative activity 80° C./70° C.” value came to 36%.

B8: JTP187: protease variant of SEQ ID NO: 3: S70V D79L Y82F S87G A112P D142L (protein, listed as Thermoascus aurantiacus)
chain: MRLVASLTALVALSVPVFPAAVNVKRASSYLEITLSQVSNTLIKAVVQNTGSDELSFVHLNFFKDPAPVKKVSVYRDGSEVQFEGILSRYKSTGLSRDAFTYLAPGESVEDVFDIASTYDLTSGGPVTIRTEGVVPYATANSTDIAGYISYSSNVLTIDVDGAAAATVSKAITPLDRRTRISSCSGSRQSALTTALRNAASLANAAADAAQSGSASKFSEYFKTTSSSTRQTVAARLRAVAREASSSVSGATTYYCLDPFGYCSGNVLAYTLPSYNIIANCDIFYTYLPPLTSTCHAQDQATTALHEFTHAPGVYSPGTLDLAYGYQAAMGLSSSQAVMNADTYALYANAIYLGC
For the molecule B8, for the setting “Table 5, upper part”, the “Relative activity 80° C./70° C.” value is given as 45%.

B9: JTP193: protease variant of SEQ ID NO: 3: Y82F S87G S70V D79L D104P A112P D142L (protein, listed as Thermoascus aurantiacus)
chain: MRLVASLTALVALSVPVFPAAVNVKRASSYLEITLSQVSNTLIKAVVQNTGSDELSFVHLNFFKDPAPVKKVSVYRDGSEVQFEGILSRYKSTGLSRDAFTYLAPGESVEDVFDIASTYDLTSGGPVTIRTEGVVPYATANSTDIAGYISYSSNVLTIDVDGAAAATVSKAITPLDRRTRISSCSGSRQSALTTALRNAASLANAAADAAQSGSASKFSEYFKTTSSSTRQTVAARLRAVAREASSSVSGATTYYCLDPFGYCSGNVLAYTLPSYNIIANCPIFYTYLPPLTSTCHAQDQATTALHEFTHAPGVYSPGTLDLAYGYQAAMGLSSSQAVMNADTYALYANAIYLGC
B9: under “Table 5, upper part”, the “Relative activity 85° C./70° C.” value came out at 15%.
